The target of this experiment is T1, His6-CIII (bacteriophage lambda CIII) (bacteriophage lambda), P03044.
T1 chain: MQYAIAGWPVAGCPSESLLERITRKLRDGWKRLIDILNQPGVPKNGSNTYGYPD
Kind of experiment: cross-linking; 10 µM His6-CIII in PBS with 0.1 mg/ml BSA at 42°C, 0.25% glutaraldehyde for 1 or 5 minutes, stopped by 200 mM glycine; NuPAGE and western blot against the His6 tag. As to conditions: remark: other sources report otherwise. A general note: A western blot detects proteins with antibodies after separation by electrophoresis.

B1: His6-CIII (bacteriophage lambda CIII), P03044 1-54 (natural protein)
chain: MQYAIAGWPVAGCPSESLLERITRKLRDGWKRLIDILNQPGVPKNGSNTYGYPD
One may read the stoichiometry N as a count of units in the complex or per binding partner. Turning to B1, the stoichiometry N was less than 12.

The values are drawn from article PMC1838920.
